Values quoted from earlier work as cited in patent US20120245089A1, “USE OF THE SPARC MICROENVIRONMENT SIGNATURE IN THE TREATMENT OF CANCER” (ABRAXIS BIOSCIENCE, LLC, priority 2009, published 2012).

Key:
neuroblastoma tumor = details: purified SPARC; in vivo xenograft model
[1] = tested on: HOSE (human ovarian surface epithelial) and ovarian cancer cells; details: exogenous SPARC; concentration-dependent

B1: SPARC: matrix-associated protein; exogenous or purified SPARC in cited studies (protein, UniProt P09486 18-303, looked up)
SPARC: APQQEALPDETEVVEETVAEVTEVSVGANPVQVEVGEFDDGAEETEEEVVAENPCQNHHCKHGKVCELDENNTPMCVCQDPTSCPAPIGEFEKVCSNDNKTFDSSCHFFATKCTLEGTKKGHKLHLDYIGPCKYIPPCLDSELTEFPLRMRDWLKNVLVTLYERDEDNNLLTEKQKLRVKKIHENEKRLEAGDHPVELLARDFEKNYNMYIFPVHWQFGQLDQHPIDGYLSHTELAPLRAPLIPMEHCTTRFFETCDLDNDKYIALDEWAGCFGIKQKDIDKDLVI
Q: With B1 as the molecule, how does the “Angiogenesis and neuroblastoma tumor growth” value (neuroblastoma tumor) read?
A: inhibit angio-gnesis and impair neuroblastoma tumor growth

Q: And the “Apoptosis in ovarian cancer cells” value (ovarian cancer cells)?
A: induces apoptosis

Q: And the “Proliferation of HOSE and ovarian cancer cells” value [1]?
A: reduce the proliferation
